The text below walks through data of patent publication US20110223168A1 (published 2011).

As a reminder, the IC50 is the concentration at which inhibition is half-maximal. Read a high IC50 as weaker potency in that assay.

The chains are these.
B1: dAb3CH/TAR1-5CK Fab (Fab, V domains shown, not shown: large carriers)
V domain 1: DIQMTQSPSSLSASVGDRVTITCRASQSVKEFLWWYQQKPGKAPKLLIYMASNLQSGVPSRFSGSGSGTDFTLTISSLQPEDFATYYCQQKFKLPRTFGQGTKVEIKR
V domain 2: DIQMTQSPSSLSASVGDRVTITCRASQSIFMNLLWYQQKPGKAPKLLIYNASVLQSGVPSRFSGSGSGTDFTLTISSLQPEDFATYYCQQVVWRPFTFGQGTKVEIKR
notes: also called TAR1-5CK d3CH
B2: TAR1-5CH/dAb1 CK Fab (Fab, V domains shown, not shown: large carriers)
V domain 1: DIQMTQSPSSLSASVGDRVTITCRASQSIFMNLLWYQQKPGKAPKLLIYNASVLQSGVPSRFSGSGSGTDFTLTISSLQPEDFATYYCQQVVWRPFTFGQGTKVEIKR
V domain 2: DIQMTQSPSSLSASVGDRVTITCRASQSIYDALEWYQQKPGKAPKLLIYTASRLQSGVPSRFSGSGSGTDFTLTISSLQPEDFATYYCQQVMQRPVTFGQGTKVEIKR
B3: TAR1-5-19CH/dAb3CK Fab (Fab, V domains shown, not shown: large carriers)
V domain 1: DIQMTQSPSSLSASVGDRVTITCRASQSIDSYLHWYQQKPGKAPKLLIYSASELQSGVPSRFSGSGSGTDFTLTISSLQPEDFATYYCQQVVWRPFTFGQGTKVEIKR
V domain 2: DIQMTQSPSSLSASVGDRVTITCRASQSVKEFLWWYQQKPGKAPKLLIYMASNLQSGVPSRFSGSGSGTDFTLTISSLQPEDFATYYCQQKFKLPRTFGQGTKVEIKR
notes: also called TAR1-5-19CH d3CK
B4: dAb1 CH/TAR1-5-19CK Fab (Fab, V domains shown, not shown: large carriers)
V domain 1: DIQMTQSPSSLSASVGDRVTITCRASQSIYDALEWYQQKPGKAPKLLIYTASRLQSGVPSRFSGSGSGTDFTLTISSLQPEDFATYYCQQVMQRPVTFGQGTKVEIKR
V domain 2: DIQMTQSPSSLSASVGDRVTITCRASQSIDSYLHWYQQKPGKAPKLLIYSASELQSGVPSRFSGSGSGTDFTLTISSLQPEDFATYYCQQVVWRPFTFGQGTKVEIKR
notes: also called TAR1-5-19CK d1CH
B5: TAR1-5-19CH/dAb1 CK Fab (Fab, V domains shown, not shown: large carriers)
V domain 1: DIQMTQSPSSLSASVGDRVTITCRASQSIDSYLHWYQQKPGKAPKLLIYSASELQSGVPSRFSGSGSGTDFTLTISSLQPEDFATYYCQQVVWRPFTFGQGTKVEIKR
V domain 2: DIQMTQSPSSLSASVGDRVTITCRASQSIYDALEWYQQKPGKAPKLLIYTASRLQSGVPSRFSGSGSGTDFTLTISSLQPEDFATYYCQQVMQRPVTFGQGTKVEIKR
notes: also called TAR1-5-19CH d1CK
B6: TAR1-5-19 d1 (other)
chain: DIQMTQSPSSLSASVGDRVTITCRASQSIDSYLHWYQQKPGKAPKLLIYSASELQSGVPSRFSGSGSGTDFTLTISSLQPEDFATYYCQQVVWRPFTFGQGTKVEIKRGGGGSGGGGSGGGGSDIQMTQSPSSLSASVGDRVTITCRASQSIYDALEWYQQKPGKAPKLLIYTASRLQSGVPSRFSGSGSGTDFTLTISSLQPEDFATYYCQQVMQRPVTFGQGTKVEIKR
notes: TAR1-5-19 substituted for TAR1-5 in lead clone d1
B7: TAR1-5-19d5 (other)
chain: DIQMTQSPSSLSASVGDRVTITCRASQSIDSYLHWYQQKPGKAPKLLIYSASELQSGVPSRFSGSGSGTDFTLTISSLQPEDFATYYCQQVVWRPFTFGQGTKVEIKRGGGGSGGGGSGGGGSGGGGSGGGGSDIQMTQSPSSLSASVGDRVTITCRASQSIYDALEWYQQKPGKAPKLLIYTASRLQSGVPSRFSGSGSGTDFTLTISSLQPEDFATYYCQQVMQRPVTFGQGTKVEIKR
B8: TAR1-5-19 d6 (other)
chain: DIQMTQSPSSLSASVGDRVTITCRASQSIDSYLHWYQQKPGKAPKLLIYSASELQSGVPSRFSGSGSGTDFTLTISSLQPEDFATYYCQQVVWRPFTFGQGTKVEIKRGGGGSGGGGSGGGGSGGGGSGGGGSGGGGSGGGGSDIQMTQSPSSLSASVGDRVTITCRASQSIYDALEWYQQKPGKAPKLLIYTASRLQSGVPSRFSGSGSGTDFTLTISSLQPEDFATYYCQQVMQRPVTFGQGTKVEIKR
B9: TAR1-27d16 (other)
chain: DIQMTQSPSSLSASVGDRVTITCRASQSIWTKLHWYQQKPGKAPKLLIYMASSLQSGVPSRFSGSGSGTDFTLTISSLQPEDFATYYCQQWFSNPSTFGQGTKVEIKRGGGGSGGGGSGGGGSDIQMTQSPSSLSASVGDRVTITCRASQSIGPNLEWYQQKPGKAPKLLIYAASSLQSGVPSRFSGSGSGTDFTLTISSLQPEDFATYYCQQQMGRPRTFGQGTKVEIKR
notes: dAb-linker-dAb dimer; also called TAR1-27 dimer d16
B10: TAR1-5-19, MSA16 cys bonded heterodimer (bispecific antibody, V domains shown)
V domain 1: DIQMTQSPSSLSASVGDRVTITCRASQSIDSYLHWYQQKPGKAPKLLIYSASELQSGVPSRFSGSGSGTDFTLTISSLQPEDFATYYCQQVVWRPFTFGQGTKVEIKR
V domain 2: DIQMTQSPSSLSASVGDRVTITCRASQSIIKHLKWYQQKPGKAPKLLIYGASRLQSGVPSRFSGSGSGTDFTLTISSLQPEDFATYYCQQGARWPQTFGQGTKVEIKR
modifications: C-terminal Cys disulphide bonded to the C-terminal Cys of the MSA16 chain ; Chain 1 pos 109 Cys and chain 2 pos 109 Cys are joined by an intermolecular disulphide bond, made by chemical coupling via dithiodipyridine activation.
notes: Made by chemical coupling via a disulphide bond; separated from monomers by cation exchange; also called disulphide bonded heterodimer of TAR1-5-19 dAb and MSA16 dAb; cys bonded TAR1-5-19, MSA16 dimer
B11: TAR1-5-19CYS dimer (other)
VL: DIQMTQSPSSLSASVGDRVTITCRASQSIDSYLHWYQQKPGKAPKLLIYSASELQSGVPSRFSGSGSGTDFTLTISSLQPEDFATYYCQQVVWRPFTFGQGTKVEIKRC
modifications: C-terminal Cys forms the disulphide between the two chains
notes: Dimer via the engineered C-terminal cysteine, purified by protein L and cation exchange; also called TAR1-5-19CYS disulphide dimer
B12: TAR1-5d1 (other)
chain: DIQMTQSPSSLSASVGDRVTITCRASQSIFMNLLWYQQKPGKAPKLLIYNASVLQSGVPSRFSGSGSGTDFTLTISSLQPEDFATYYCQQVVWRPFTFGQGTKVEIKRGGGGSGGGGSGGGGSDIQMTQSPSSLSASVGDRVTITCRASQSIYDALEWYQQKPGKAPKLLIYTASRLQSGVPSRFSGSGSGTDFTLTISSLQPEDFATYYCQQVMQRPVTFGQGTKVEIKR
notes: dAb-linker-dAb dimer; also called TAR1-5 dimer 1
B13: TAR1-5d5 (other)
chain: DIQMTQSPSSLSASVGDRVTITCRASQSIFMNLLWYQQKPGKAPKLLIYNASVLQSGVPSRFSGSGSGTDFTLTISSLQPEDFATYYCQQVVWRPFTFGQGTKVEIKRGGGGSGGGGSGGGGSGGGGSGGGGSDIQMTQSPSSLSASVGDRVTITCRASQSIYDALEWYQQKPGKAPKLLIYTASRLQSGVPSRFSGSGSGTDFTLTISSLQPEDFATYYCQQVMQRPVTFGQGTKVEIKR
notes: dAb-linker-dAb dimer; also called TAR1-5 dimer 5
B14: TAR1-5d6 (other)
chain: DIQMTQSPSSLSASVGDRVTITCRASQSIFMNLLWYQQKPGKAPKLLIYNASVLQSGVPSRFSGSGSGTDFTLTISSLQPEDFATYYCQQVVWRPFTFGQGTKVEIKRGGGGSGGGGSGGGGSGGGGSGGGGSGGGGSGGGGSDIQMTQSPSSLSASVGDRVTITCRASQSIYDALEWYQQKPGKAPKLLIYTASRLQSGVPSRFSGSGSGTDFTLTISSLQPEDFATYYCQQVMQRPVTFGQGTKVEIKR
notes: dAb-linker-dAb dimer; also called TAR1-5 dimer 6
B15: TAR1-5d4 (other)
chain: DIQMTQSPSSLSASVGDRVTITCRASQSIFMNLLWYQQKPGKAPKLLIYNASVLQSGVPSRFSGSGSGTDFTLTISSLQPEDFATYYCQQVVWRPFTFGQGTKVEIKRGGGGSGGGGSGGGGSGGGGSGGGGSDIQMTQSPSSLSASVGDRVTITCRASQSVKEFLWWYQQKPGKAPKLLIYMASNLQSGVPSRFSGSGSGTDFTLTISSLQPEDFATYYCQQKFKLPRTFGQGTKVEIKR
notes: dAb-linker-dAb dimer; also called TAR1-5 dimer 4
B16: TAR1-5-19 3U homodimer (other)
chain: DIQMTQSPSSLSASVGDRVTITCRASQSIDSYLHWYQQKPGKAPKLLIYSASELQSGVPSRFSGSGSGTDFTLTISSLQPEDFATYYCQQVVWRPFTFGQGTKVEIKRGGGGSGGGGSGGGGSDIQMTQSPSSLSASVGDRVTITCRASQSIDSYLHWYQQKPGKAPKLLIYSASELQSGVPSRFSGSGSGTDFTLTISSLQPEDFATYYCQQVVWRPFTFGQGTKVEIKR
notes: also called TAR1-5-19 homodimer with (Gly4Ser)3 linker
B17: TAR1-5-19 5U homodimer (other)
chain: DIQMTQSPSSLSASVGDRVTITCRASQSIDSYLHWYQQKPGKAPKLLIYSASELQSGVPSRFSGSGSGTDFTLTISSLQPEDFATYYCQQVVWRPFTFGQGTKVEIKRGGGGSGGGGSGGGGSGGGGSGGGGSDIQMTQSPSSLSASVGDRVTITCRASQSIDSYLHWYQQKPGKAPKLLIYSASELQSGVPSRFSGSGSGTDFTLTISSLQPEDFATYYCQQVVWRPFTFGQGTKVEIKR
notes: also called TAR1-5-19 homodimer with (Gly4Ser)5 linker
B18: TAR1-5-19 7U homodimer (other)
chain: DIQMTQSPSSLSASVGDRVTITCRASQSIDSYLHWYQQKPGKAPKLLIYSASELQSGVPSRFSGSGSGTDFTLTISSLQPEDFATYYCQQVVWRPFTFGQGTKVEIKRGGGGSGGGGSGGGGSGGGGSGGGGSGGGGSGGGGSDIQMTQSPSSLSASVGDRVTITCRASQSIDSYLHWYQQKPGKAPKLLIYSASELQSGVPSRFSGSGSGTDFTLTISSLQPEDFATYYCQQVVWRPFTFGQGTKVEIKR
notes: also called TAR1-5-19 homodimer with (Gly4Ser)7 linker
B19: TAR1-5-19 cys hinge dimer (other)
chain: DIQMTQSPSSLSASVGDRVTITCRASQSIDSYLHWYQQKPGKAPKLLIYSASELQSGVPSRFSGSGSGTDFTLTISSLQPEDFATYYCQQVVWRPFTFGQGTKVEIKREPKSGDKTHTCPPCP
modifications: hinge cysteines form the cystine bond(s) between the two chains
notes: Dimerises in the periplasm; FPLC purified dimer fraction tested; also called cysteine hinge linker format

The first test deals with T1, human TNFα (human, UniProt P01375 77-233).
T1 construct: Coated on plates, coupled to a CM5 chip, or added in solution (10 ng/ml) in the TNF receptor assay; the assay paragraphs often print only 'TNF'; also called TNF alpha; TAR1
T1 sequence (P01375 77-233 limits assumed): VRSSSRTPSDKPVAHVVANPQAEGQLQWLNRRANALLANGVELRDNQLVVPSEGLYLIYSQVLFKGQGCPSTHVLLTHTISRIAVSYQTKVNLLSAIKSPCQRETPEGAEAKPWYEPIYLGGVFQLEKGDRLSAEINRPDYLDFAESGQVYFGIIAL
Nature of the test: TNF receptor assay: inhibition of TNF binding to TNFR1-Fc (ELISA). For orientation: In an ELISA, binding on a coated surface is turned into a signal by an enzyme label.
B1: the IC50 is roughly 100 nM.
Regarding B2, the IC50 is roughly 90 nM.
Still for that read-out and setting: the result for B3 reads roughly 3 nM.
The same measure, in the same setting: the result for B4 reads roughly 6 nM; that for B5, roughly 6 nM.

Another test has as its target T1, human TNFα. Described as above. This is another data set of the same source.
For the molecule B6, the IC50 was roughly 15 nM.
Consider B7, for which the IC50 was roughly 8 nM.
On the same count and under the same terms, for B8 the value was roughly 10 nM.

Another test deals with T1, human TNFα. Described as above. This is another data set of the same source.
On to B9, for which the concentration for half-maximal inhibition (IC50) was roughly 50 nM.
Still for that read-out and setting: the result for B10 reads roughly 18 nM; that for B11, 0.3 to 0.8 nM.

The target of the next test is T1, human TNFα. The description is as above. The source holds these as a separate data set.
The molecule B12 displayed an IC50 of roughly 30 nM.
Molecule B13 showed a half-maximal inhibitory concentration (IC50) of roughly 200 nM.
On the same count and under the same terms, the result for B14 reads roughly 100 nM; that for B15, roughly 3 nM.

For another test, the target named is T1, human TNFα. Nature of the test: cell-based or functional assay.
With B16, the “CA (cell assay, ND50)” value was roughly 30 nM.
For the molecule B17, the “CA (cell assay, ND50)” value was roughly 3 nM.
Regarding B18, the “CA (cell assay, ND50)” value is roughly 15 nM.

A further test addresses T1, human TNFα. Nature of the test: TNF receptor assay: inhibition of TNF binding to TNFR1-Fc (ELISA). This is another data set of the same source.
B19 had an IC50 of roughly 2 nM.
On the same count and under the same terms, for B16 the value was roughly 20 nM; for B17, roughly 2 nM; for B18, roughly 10 nM.
